“Also recorded” adds a separate entry of the source.

The record followed here is patent US20130136721A1, “Compositions and Methods of Generating a Differentiated Mesodermal Cell” (THE JOHNS HOPKINS UNIVERSITY, priority 2010, published 2013).

In experiment [1] the test system is H9 hESC. Put plainly: Beating hEB assay (contracting hEB after forced aggregation cardiac differentiation). In kind it is cell-based, human. Particulars: for effect on cardiac differentiation, phase 2 medium: supplement in d0-d2 medium; for effect on cardiac differentiation, phase 2 medium / effect on cardiac differentiation, phase 3 medium: contracting hEB d9; for effect on cardiac differentiation, phase 3 medium: supplement in d2-d4 medium. The text has this:
The cardiac differentiation protocol was divided into four distinct phases for optimization (FIG. 3A): phase 1: uniform undifferentiated growth; phase 2: hEB formation/mesoderm induction; phase 3: hEB cardiac specification; phase 4: contracting cardiomyocyte development. […] After an initial round of optimizations had been completed, optimizations was repeated a second time to account for the new media formulations and then a third time to optimize the final media formulation. In some cases fourth and fifth repeats were performed to improve the statistical power of the results. For each variable tested, the bell-curve distribution of dose-response was determined. Results shown are averages of the 2nd-5th replicates (FIG. 2B).
For forced aggregation hEB differentiations, confluent hESC or hiPSC which had been grown on a commercially available extracellular matrix, Geltrex (Invitrogen) as monolayers for 3 to 13 passages were passaged with TrypLE Select and seeded at 2.5×10^6 per T25 flask. After 24 hours growth, cells were washed with PBS and treated with room temperature TrypLE Select for 1 minute at 37° C. Cells were seeded at 5000 cells per well in 96-well V-bottom uncoated plates (249952, NUNC) in 100 μL per well RPMI+PVA medium consisting of RPMI Media 1640 (with L-Glutamine), 4 mg mL-1 polyvinyl alcohol (P8136, Sigma, dissolved in RPMI at 4° C. for at least 72 hours, mixing by inversion every day), 1% chemically defined lipid concentrate, 10 μg mL-1 recombinant human insulin (Sigma), 400 μM 1-thioglycerol (Sigma), 25 ng mL-1 BMP4 and 5 ng mL-1 FGF2 (both from R&D systems), 1 μM Y-27632 (Calbiochem). This medium is not stable and was made fresh for each experiment. After 48 hours (on day 2) medium was aspirated with a Costar 8-channel aspirator (Corning) and replaced with RPMI+FBS medium consisting RPMI Media 1640, 20% characterized FBS (Hyclone), 400 μM 1-thioglycerol. On day 4 media was changed to RPMI+PVA without growth factors and hEB were transferred to 96-well U-bottom tissue culture treated plates (650180, Greiner Bio-One). Media was changed on d7 and every 3 days afterwards. hEB were visually assessed for contraction on d9 using a Nikon Eclipse Ti inverted tissue culture microscope with a TOKAI-HIT heated stage (Nikon). Images were captured using NIS-Elements (Nikon). […] For traditional cardiac differentiations using FBS, undirected differentiation was performed as previously described (Kehat et al. J Clin Invest 108, 407-414 (2001)): briefly, confluent H9 hESC grown as colonies on MEF were treated with collagenase IV for 5 minutes at 37° C. then washed from the plate using a 5 mL pipette. Cell clusters were then transferred to Petri dishes in 20% FBS medium for 7 days. hEB were then transferred to gelatin coated tissue culture plates. Media was changed every 3 days.
One single replicate consists of one 96-well plate. Repeat replicates were performed 1-4 months apart using a different vial of cells. Each experiment was repeated at least 3 times representing at least 288 hEB. Total number of hEB assessed in this work exceeds 80,000. Wells in which no hEB was detected due to pipeting error were excluded and accounted for approximately 1-5% of wells. P-values were established using unpaired two-tailed Student's t-test.

Experiment [2] deals with iPS(IMR90)-1 hiPSC. The description is as above. Particulars: d0-d2. In kind it is cell-based, human. From the text:
The cardiac differentiation protocol was divided into four distinct phases for optimization (FIG. 3A): phase 1: uniform undifferentiated growth; phase 2: hEB formation/mesoderm induction; phase 3: hEB cardiac specification; phase 4: contracting cardiomyocyte development. A simple beating hEB assay was used to sequentially assess improvements in cardiac differentiation in each of these four phases by counting the number of hEB contracting after nine days of differentiation, a time point that was identified as the day of maximum percentage contraction in the enhanced ‘prototype’ version of the protocol (FIG. 1B). After an initial round of optimizations had been completed, optimizations was repeated a second time to account for the new media formulations and then a third time to optimize the final media formulation. […] For each variable tested, the bell-curve distribution of dose-response was determined. […]
For forced aggregation hEB differentiations, confluent hESC or hiPSC which had been grown on a commercially available extracellular matrix, Geltrex (Invitrogen) as monolayers for 3 to 13 passages were passaged with TrypLE Select and seeded at 2.5×10^6 per T25 flask. […] Media was changed on d7 and every 3 days afterwards. hEB were visually assessed for contraction on d9 using a Nikon Eclipse Ti inverted tissue culture microscope with a TOKAI-HIT heated stage (Nikon). […]

B1: NODAL: growth factor titrated between 1-100 ng mL-1 (protein, UniProt Q96S42 238-347, looked up)
Nodal homolog: HHLPDRSQLCRKVKFQVDFNLIGWGSWIIYPKQYNAYRCEGECPNPVGEEFHPTNHAYIQSLLKRYQPHRVPSTCCAPVKTKPLSMLYVDNGRVLLDHHKDMIVEECGCL
On to B1, for which, in experiment [1], the “effect on cardiac differentiation, phase 2 medium” value is reported as “none were found to have the same potency as BMP4”.

B2: BMP6: growth factor titrated between 1-100 ng mL-1 (protein, UniProt P22004 375-513, looked up)
Bone morphogenetic protein 6: SASSRRRQQSRNRSTQSQDVARVSSASDYNSSELKTACRKHELYVSFQDLGWQDWIIAPKGYAANYCDGECSFPLNAHMNATNHAIVQTLVHLMNPEYVPKPCCAPTKLNAISVLYFDDNSNVILKKYRNMVVRACGCH
B2: the “effect on cardiac differentiation, phase 2 medium” value in experiment [1] was “none were found to have the same potency as BMP4”.

B3: transferrin: bovine transferrin media supplement (protein, UniProt Q29443 20-704, looked up)
Serotransferrin: DPERTVRWCTISTHEANKCASFRENVLRILESGPFVSCVKKTSHMDCIKAISNNEADAVTLDGGLVYEAGLKPNNLKPVVAEFHGTKDNPQTHYYAVAVVKKDTDFKLNELRGKKSCHTGLGRSAGWNIPMAKLYKELPDPQESIQRAAANFFSASCVPCADQSSFPKLCQLCAGKGTDKCACSNHEPYFGYSGAFKCLMEGAGDVAFVKHSTVFDNLPNPEDRKNYELLCGDNTRKSVDDYQECYLAMVPSHAVVARTVGGKEDVIWELLNHAQEHFGKDKPDNFQLFQSPHGKDLLFKDSADGFLKIPSKMDFELYLGYEYVTALQNLRESKPPDSSKDECMVKWCAIGHQERTKCDRWSGFSGGAIECETAENTEECIAKIMKGEADAMSLDGGYLYIAGKCGLVPVLAENYKTEGESCKNTPEKGYLAVAVVKTSDANINWNNLKDKKSCHTAVDRTAGWNIPMGLLYSKINNCKFDEFFSAGCAPGSPRNSSLCALCIGSEKGTGKECVPNSNERYYGYTGAFRCLVEKGDVAFVKDQTVIQNTDGNNNEAWAKNLKKENFEVLCKDGTRKPVTDAENCHLARGPNHAVVSRKDKATCVEKILNKQQDDFGKSVTDCTSNFCLFQSNSKDLLFRDDTKCLASIAKKTYDSYLGDDYVRAMTNLRQCSTSKLLEACTFHKP
As for B3, in experiment [1], the “effect on cardiac differentiation, phase 2 medium” value was “either did not further enhance differentiation or had negative effects on differentiation” and the “effect on cardiac differentiation, phase 3 medium” value is reported as “Neither transferrin, L-ascorbic acid, lipids or NEAA enhanced this phase of differentiation”. Besides, the “effect on cardiac differentiation, phase 4 medium” value in experiment [1] (supplement in d4 onwards medium) was “not required”.

B4: TDGF1: growth factor titrated between 1-100 ng mL-1 (protein, UniProt P13385 31-150, looked up)
Protein Cripto: LGHQEFARPSRGYLAFRDDSIWPQEEPAIRPRSSQRVPPMGIQHSKELNRTCCLNGGTCMLGSFCACPPSFYGRNCEHDVRKENCGSVPHDTWLPKKCSLCKCWHGQLRCFPQAFLPGCD
B4: in experiment [1], the “effect on cardiac differentiation, phase 2 medium” value is given as “none were found to have the same potency as BMP4”.

B5: activin A: growth factor titrated between 1-100 ng mL-1 (protein, UniProt P08476 311-426, looked up)
Inhibin beta A chain: GLECDGKVNICCKKQFFVSFKDIGWNDWIIAPSGYHANYCEGECPSHIAGTSGSSLSFHSTVINHYRMRGHSPFANLKSCCVPTKLRPMSMLYYDDGQNIIKKDIQNMIVEECGCS
Consider B5, for which, in experiment [1], the “effect on cardiac differentiation, phase 2 medium” value was “none were found to have the same potency as BMP4”.

B6: BMP4: bone morphogenic protein 4, mesodermal morphogen growth factor (protein, UniProt P12644 293-408, looked up)
Bone morphogenetic protein 4: SPKHHSQRARKKNKNCRRHSLYVDFSDVGWNDWIVAPPGYQAFYCHGDCPFPLADHLNSTNHAIVQTLVNSVNSSIPKACCVPTELSAISMLYLDEYDKVVLKNYQEMVVEGCGCR
Turning to B6, the “most effective BMP4 concentration” value in experiment [2] came out at 5 ng/mL; in experiment [1] (d0-d2), 25 ng/mL. In experiment [1], the “effect on cardiac differentiation, phase 3 medium” value was “did not further enhance this phase; also recorded: did not enhance cardiac differentiation”.

B7: DKK1: additional supplement to serum-free d2-d4 medium (protein, UniProt O94907 32-266, looked up)
Dickkopf-related protein 1: TLNSVLNSNAIKNLPPPLGGAAGHPGSAVSAAPGILYPGGNKYQTIDNYQPYPCAEDEECGTDEYCASPTRGGDAGVQICLACRKRRKRCMRHAMCCPGNYCKNGICVSSDQNHFRGEIEETITESFGNDHSTLDGYSRRTTLSSKMYHTKGQEGSVCLRSSDCASGLCCARHFWSKICKPVLKEGQVCTKHRRKGSHGLEIFQRCYCGEGLSCRIQKDHHQASNSSRLHTCQRH
For B7, in experiment [1] (supplement in serum-free d2-d4 medium), the “effect on cardiac differentiation, xeno- and serum-free d2-d4 medium” value is reported as “did not further enhance differentiation”.
